Here are results for 2 molecules from patent US20200277349A1 (FRAUNHOFER GESELLSCHAFT ZUR F RDERUNG DER ANGEWANDTEN …, published 2020).

The target in test [1] is T1, human IL-1RAPL1 extracellular domain-Fc chimera (human, UniProt Q9NZN1 19-357).
T1 construct: extracellular domain; Coated on 96 well plates at 0.5 ug; also called IL-1RAPL1-Fc; immobilized IL-1RAPL1; not shown: Fc part of the chimera
T1 sequence (looked up): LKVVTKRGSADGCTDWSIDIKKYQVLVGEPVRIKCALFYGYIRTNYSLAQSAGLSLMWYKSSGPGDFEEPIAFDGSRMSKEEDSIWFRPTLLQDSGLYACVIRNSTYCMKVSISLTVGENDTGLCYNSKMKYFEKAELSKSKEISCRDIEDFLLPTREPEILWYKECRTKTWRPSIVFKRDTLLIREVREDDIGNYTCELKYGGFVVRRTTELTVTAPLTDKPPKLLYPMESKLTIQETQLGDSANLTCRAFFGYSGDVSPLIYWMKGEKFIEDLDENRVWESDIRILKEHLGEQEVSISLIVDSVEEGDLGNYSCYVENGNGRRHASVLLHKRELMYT
The test is described as follows: plate binding assay on immobilized IL-1RAPL1 extracellular domain-Fc chimera (FIG. 7B). On the procedure:
(§1) After 24 h IL-6 concentration in the supernatants was measured using cytometric bead array, normalized results are shown. Data are means±SEM, n=7. (B) Binding kinetics of full length and cleaved IL-38 to immobilized IL-1RAPL1. […] IL-38 binding to the extracellular domain of the receptors was detected using biotinylated monoclonal IL-38 antibody. Data are means±SEM, n=5.*p<0.05, ANOVA with Bonferroni's correction.
(§2) The inventors performed a receptor binding assay as explained above. Both IL-38 isoforms bound to IL-1RAPL1 in this assay (FIG. 7B). However, binding kinetics seemed to differ slightly. […] IL-1RAPL1 knock-down in macrophages abrogated both, IL-6 induction by full-length 11-38 and IL-6 suppression by truncated IL-38 (FIG. 7C).

Test [2] addresses T1, human IL-1RAPL1 extracellular domain-Fc …. Description: plate binding assay: IL-1RAPL1-Fc coated, IL-38 titrated, detected with biotinylated monoclonal IL-38 antibody. On the procedure:
as §1, §2

B1: recombinant human truncated (cleaved) IL-38 (IL-38aa20-152) (ligand)
chain: LYTRDGQLLVGDPVADNCCAEKICILPNRGLARTKVPIFLGIQGGSRCLACVETEEGPSLQLEDVNIEELYKGGEEATRFTFFQSSSGSAFRLEAAAWPGWFLCGPAEPQQPVQLTKESEPSARTKFYFEQSW
notes: also called truncated IL-38
B1: the binding result in test [1] is given as “binds”.

B2: recombinant human full length IL-38 (IL-38aa1-152) (ligand)
chain: MCSLPMARYYIIKYADQKALYTRDGQLLVGDPVADNCCAEKICILPNRGLARTKVPIFLGIQGGSRCLACVETEEGPSLQLEDVNIEELYKGGEEATRFTFFQSSSGSAFRLEAAAWPGWFLCGPAEPQQPVQLTKESEPSARTKFYFEQSW
On to B2, for which the binding result in test [2] is “binds”.
